This is an account of results in publication PMC5414288 (2017).

No end group written: not given here. *: point of attachment. HYNIC = NNc1ccc(C(=O)*)cn1

This assay has as its target EGFR (on SKOV3 cells) (Homo sapiens, UniProt P00533). The assay is described as follows: saturation binding assay on SKOV3 cells (radioligand).

On to {HYNIC}-SSSYHWYGYTPQNVI (also: 99mTc-tricine labeled) [HYNIC-SSS-GE11 peptide], for which the dissociation constant Kd (commonly the constant that tells how readily two partners part at equilibrium) worked out at 73 nM.
